Reference: publication PMC7286605
Values joined by “and” are separate entries in the source; they are usually repeats but may differ in a detail not shown here. Equal entries are not always repeated.

What was measured:
[1] = target: water-soluble variant of the μ-opioid receptor (wsMOR) (UniProt P35372); experiment: photonic crystal Fano resonance shift
[2] = target: water-soluble variant of the μ-opioid receptor (wsMOR) (UniProt P35372); experiment: MoS2 field-effect transistor biosensor

“DAMGO ([D-Ala2, N-MePhe4, Gly-ol]-enkephalin) (peptide)” was tested, and the EC50 [1] was 1 nM and 1.2 nM, the Kd [1] was 2.5 nM and the EC50 [2] was 1.2 nM and 1.5 nM. The Kd [2] was 3.6 nM.
